Columns and labels:
(His)6-RcsB [1] = target: T1, (His)6-RcsB (Escherichia coli, UniProt P0DMC7 1-216); assay: native gel or EMSA
T1 sequence: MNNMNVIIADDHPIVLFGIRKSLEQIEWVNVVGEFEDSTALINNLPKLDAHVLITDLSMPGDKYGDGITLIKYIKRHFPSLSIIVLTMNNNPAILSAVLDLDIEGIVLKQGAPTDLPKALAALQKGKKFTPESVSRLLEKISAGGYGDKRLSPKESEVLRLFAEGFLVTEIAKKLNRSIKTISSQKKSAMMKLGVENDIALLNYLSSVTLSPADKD

MBP-RcsB = target: T2, MBP-RcsB (Escherichia coli (MG1655 strain), UniProt P0DMC7 1-216); assay: native gel or EMSA
T2 sequence: T1 sequence

[2] = target: the molecule itself
(His)6-RcsB [3] = target: T3, (His)6-RcsB (Escherichia coli, UniProt P0DMC7 1-216); assay: EMSA
T3 sequence: T1 sequence

B1: MBP-GadE (natural protein)
chain: MIFLMTKDSFLLQGFWQLKDNHEMIKINSLSEIKKVGNKPFKVIIDTYHNHILDEEAIKFLEKLDAERIIVLAPYHISKLKAKAPIYFVSRKESIKNLLEITYGKHLPHKNSQLCFSHNQFKIMQLILKNKNESNITSTLNISQQTLKIQKFNIMYKLKLRRMSDIVTLGITSYF
Q: Which results are given for B1?
A: binding result ((His)6-RcsB [1]): binds; binding result (MBP-RcsB): binds; stoichiometry N [2]: 2

B2: (His)6-GadE (natural protein)
chain: B1 chain
Q: Which results are given for B2?
A: binding result ((His)6-RcsB [1]): binds; binding result (MBP-RcsB): binds

B3: gadA promoter -101 to +24 (dsDNA)
DNA 1: GTTTATATTATAAAAAGTCGTTTTTCTGCTTAGGATTTTGTTATTTAAATTAAGCCTGTAATGCCTTGCTTCCATTGCGGATAAATCCTACTTTTTTATTGCCTTCAAATAAATTTAAGGAGTTC
DNA 2: GAACTCCTTAAATTTATTTGAAGGCAATAAAAAAGTAGGATTTATCCGCAATGGAAGCAAGGCATTACAGGCTTAATTTAAATAACAAAATCCTAAGCAGAAAAACGACTTTTTATAATATAAAC
Q: Does B3 bind ((His)6-RcsB [3])?
A: Result: binds

From paper PMC2887963 (Nucleic Acids Research, 2010)
